In PMC5421877, “SOCS3 inhibits the pathological effects of IL-22 in non-melanoma skin tumor-derived keratinocytes” (Oncotarget, 2017):

Legend:
Type in all cases: cell-based, human
[1] = tested on: Erk1/2 phosphorylation in healthy keratinocytes; experiment: Western blot of Erk1/2 phosphorylation in healthy keratinocytes (IL-22); settings: IL-22 time course, no peptide, n = 3
Protocol: (§1) Figure 5 KIR-ESS peptide inhibits IL-22-induced phosphorylation of STAT3 and Erk in healthy and SCC-derived keratinocytes (A) Protein extracts obtained from healthy keratinocytes (n = 3) pre-treated or not with 15 μM (left panel) or 75 μM (right panel), KIR, KIR-ESS and control (Ctrl1 or Ctrl2) peptides, and, then, […], were subjected to WB analysis to detect STAT3 (Tyr705), Erk and MEK phosphorylation. Filters were probed with anti-STAT3, -Erk and –MEK Abs (top). (B) Protein extracts obtained from healthy keratinocytes (n = 3) pre-treated or not with 75 μM KIR-ESS and control (Ctrl1) peptides, and, then, stimulated or not with IL-22 for 10 min, were subjected to immunoprecipitation for IL-22R1 and Jak1, and then analysed by WB to detect phosphorylated and unphosphorylated forms of the proteins. (C) Unphosphorylated and phosphorylated forms of STAT1 (Tyr701) and STAT3 (Tyr705) were monitored in keratinocytes treated with IFN-γ for 15 min by WB analysis (bottom). In all experimental groups, filters were stripped and re-probed with β-actin Ab. (D) Protein extracts were obtained from CAL27 (left panel) or CAL33 (right panel) lines treated or not with 75 μM peptides in presence of IL-22 or IFN-γ. WB was performed to detect basal and phosphorylated STAT1, STAT3 and Erk. D.I. ratio indicates the densitometric intensity of phosphorylated/unphosphorylated target protein. […]

[2] = tested on: STAT3 phosphorylation in healthy keratinocytes; experiment: Western blot of STAT3 phosphorylation in healthy keratinocytes (IL-22); settings: IL-22 time course, no peptide, n = 3
Protocol: as §1

Jak1 phosphorylation = experiment: IP/WB of Jak1 phosphorylation in healthy keratinocytes (IL-22); settings: IL-22 10 min, no peptide, n = 3
Protocol: Figure 5 KIR-ESS peptide inhibits IL-22-induced phosphorylation of STAT3 and Erk in healthy and SCC-derived keratinocytes (A) Protein extracts obtained from healthy keratinocytes (n = 3) pre-treated or not with 15 μM (left panel) or 75 μM (right panel), KIR, KIR-ESS and control (Ctrl1 or Ctrl2) peptides, and, then, stimulated or not with IL-22 for 20 min, were subjected to WB analysis to detect STAT3 (Tyr705), Erk and MEK phosphorylation. Filters were probed with anti-STAT3, -Erk and –MEK Abs (top). (B) Protein extracts obtained from healthy keratinocytes (n = 3) pre-treated or not with 75 μM KIR-ESS and control (Ctrl1) peptides, and, then, stimulated or not with IL-22 for 10 min, were subjected to immunoprecipitation for IL-22R1 and Jak1, and then analysed by WB to detect phosphorylated and unphosphorylated forms of the proteins. (C) Unphosphorylated and phosphorylated forms of STAT1 (Tyr701) and STAT3 (Tyr705) were monitored in keratinocytes treated with IFN-γ for 15 min by WB analysis (bottom). In all experimental groups, filters were stripped and re-probed with β-actin Ab. (D) Protein extracts were obtained from CAL27 (left panel) or CAL33 (right panel) lines treated or not with 75 μM peptides in presence of IL-22 or IFN-γ. WB was performed to detect basal and phosphorylated STAT1, STAT3 and Erk. […]

B1: IL-22: cytokine stimulus, R&D Systems (protein, UniProt Q9GZX6 34-179, looked up)
Interleukin-22: APISSHCRLDKSNFQQPYITNRTFMLAKEASLADNNTDVRLIGEKLFHGVSMSERCYLMKQVLNFTLEEVLFPQSDRFQPYMQEVVPFLARLSNRLSTCHIEGDDLHIQRNVQKLKDTVKKLGESGEIKAIGELDLLFMSLRNACI
Erk1/2 activation [1]: culminated with STAT3, MEK1/2 and Erk1/2 activation
STAT3 activation [2]: culminated with STAT3, MEK1/2 and Erk1/2 activation
Jak1 phosphorylation induced (Jak1 phosphorylation): induced molecular cascade implicating phosphorylation of IL-22R1, Tyk2 and Jak1
